Drawing on article PMC10786891, “Massively parallel profiling of RNA-targeting CRISPR-Cas13d”, this text covers Kd for 27 molecules.

A word on the Kd: it is the concentration at which binding is half-saturated. Read a high Kd as lower affinity.

B1: target 1 C7A,A18G (mixed)
RNA 1: CACCCGUGCAAAAAUGCAGGGGUCUAAAACUGAGCGGAUAACCUCUCUAUGG
RNA 2: GGGAAUGGAUCCACAUCUACGAAUUCGUACCAUGGAGAGGUUAUACGCUCACCGAGAUCGGAAGAGCACACGU
B2: target 1 G5A,C7U (mixed)
RNA 1: CACCCGUGCAAAAAUGCAGGGGUCUAAAACUGAGCGGAUAACCUCUCUAUGG
RNA 2: GGGAAUGGAUCCACAUCUACGAAUUCGUACCAUAGAGAGGUUAUUCACUCACCGAGAUCGGAAGAGCACACGU
B3: target 1 insG 3' of 18,insU 3' of 17 (mixed)
RNA 1: CACCCGUGCAAAAAUGCAGGGGUCUAAAACUGAGCGGAUAACCUCUCUAUGG
RNA 2: GGGAAUGGAUCCACAUCUACGAAUUCGUACCAUAGGUAGAGGUUAUCCGCUCACCGAGAUCGGAAGAGCACACGU
B4: target 2 MT 5'PFS GCU 3'PFS CGG (mixed)
RNA 1: CACCCGUGCAAAAUUGCAGGGGUCUAAAACCUUCUCCAAAUUGUUUCAUCCU
RNA 2: GGGAAUGGAUCCACAUCUACGAAUUCGCUAGGAUGAAACAAUUUGGAGAAGCGGAGAUCGGAAGAGCACACGU
B5: target 2 MT 5'PFS ACC 3'PFS AAU (mixed)
RNA 1: CACCCGUGCAAAAUUGCAGGGGUCUAAAACCUUCUCCAAAUUGUUUCAUCCU
RNA 2: GGGAAUGGAUCCACAUCUACGAAUUCACCAGGAUGAAACAAUUUGGAGAAGAAUAGAUCGGAAGAGCACACGU
B6: target 2 MT 5'PFS GGA 3'PFS AUA (mixed)
RNA 1: CACCCGUGCAAAAUUGCAGGGGUCUAAAACCUUCUCCAAAUUGUUUCAUCCU
RNA 2: GGGAAUGGAUCCACAUCUACGAAUUCGGAAGGAUGAAACAAUUUGGAGAAGAUAAGAUCGGAAGAGCACACGU
B7: target 2 MT 5'PFS GGA 3'PFS AUC (mixed)
RNA 1: CACCCGUGCAAAAUUGCAGGGGUCUAAAACCUUCUCCAAAUUGUUUCAUCCU
RNA 2: GGGAAUGGAUCCACAUCUACGAAUUCGGAAGGAUGAAACAAUUUGGAGAAGAUCAGAUCGGAAGAGCACACGU
B8: target 2 MT 5'PFS UUA 3'PFS UCA (mixed)
RNA 1: CACCCGUGCAAAAUUGCAGGGGUCUAAAACCUUCUCCAAAUUGUUUCAUCCU
RNA 2: GGGAAUGGAUCCACAUCUACGAAUUCUUAAGGAUGAAACAAUUUGGAGAAGUCAAGAUCGGAAGAGCACACGU
B9: target 2 MT 5'PFS GAU 3'PFS UGC (mixed)
RNA 1: CACCCGUGCAAAAUUGCAGGGGUCUAAAACCUUCUCCAAAUUGUUUCAUCCU
RNA 2: GGGAAUGGAUCCACAUCUACGAAUUCGAUAGGAUGAAACAAUUUGGAGAAGUGCAGAUCGGAAGAGCACACGU
B10: target 2 MT 5'PFS UAU 3'PFS AUC (mixed)
RNA 1: CACCCGUGCAAAAUUGCAGGGGUCUAAAACCUUCUCCAAAUUGUUUCAUCCU
RNA 2: GGGAAUGGAUCCACAUCUACGAAUUCUAUAGGAUGAAACAAUUUGGAGAAGAUCAGAUCGGAAGAGCACACGU
B11: target 2 MT 5'PFS UCG 3'PFS AUA (mixed)
RNA 1: CACCCGUGCAAAAUUGCAGGGGUCUAAAACCUUCUCCAAAUUGUUUCAUCCU
RNA 2: GGGAAUGGAUCCACAUCUACGAAUUCUCGAGGAUGAAACAAUUUGGAGAAGAUAAGAUCGGAAGAGCACACGU
B12: target 2 MT 5'PFS GGA 3'PFS AUG (mixed)
RNA 1: CACCCGUGCAAAAUUGCAGGGGUCUAAAACCUUCUCCAAAUUGUUUCAUCCU
RNA 2: GGGAAUGGAUCCACAUCUACGAAUUCGGAAGGAUGAAACAAUUUGGAGAAGAUGAGAUCGGAAGAGCACACGU
B13: target 2 MT 5'PFS GAC 3'PFS UCU (mixed)
RNA 1: CACCCGUGCAAAAUUGCAGGGGUCUAAAACCUUCUCCAAAUUGUUUCAUCCU
RNA 2: GGGAAUGGAUCCACAUCUACGAAUUCGACAGGAUGAAACAAUUUGGAGAAGUCUAGAUCGGAAGAGCACACGU
B14: target 2 MT 5'PFS GCU 3'PFS CGA (mixed)
RNA 1: CACCCGUGCAAAAUUGCAGGGGUCUAAAACCUUCUCCAAAUUGUUUCAUCCU
RNA 2: GGGAAUGGAUCCACAUCUACGAAUUCGCUAGGAUGAAACAAUUUGGAGAAGCGAAGAUCGGAAGAGCACACGU
B15: target 2 MT 5'PFS GAU 3'PFS UGU (mixed)
RNA 1: CACCCGUGCAAAAUUGCAGGGGUCUAAAACCUUCUCCAAAUUGUUUCAUCCU
RNA 2: GGGAAUGGAUCCACAUCUACGAAUUCGAUAGGAUGAAACAAUUUGGAGAAGUGUAGAUCGGAAGAGCACACGU
B16: target 2 MT 5'PFS GUU 3'PFS CUG (mixed)
RNA 1: CACCCGUGCAAAAUUGCAGGGGUCUAAAACCUUCUCCAAAUUGUUUCAUCCU
RNA 2: GGGAAUGGAUCCACAUCUACGAAUUCGUUAGGAUGAAACAAUUUGGAGAAGCUGAGAUCGGAAGAGCACACGU
B17: target 2 MT 5'PFS ACC 3'PFS AAA (mixed)
RNA 1: CACCCGUGCAAAAUUGCAGGGGUCUAAAACCUUCUCCAAAUUGUUUCAUCCU
RNA 2: GGGAAUGGAUCCACAUCUACGAAUUCACCAGGAUGAAACAAUUUGGAGAAGAAAAGAUCGGAAGAGCACACGU
B18: target 2 MT 5'PFS UUA 3'PFS UCG (mixed)
RNA 1: CACCCGUGCAAAAUUGCAGGGGUCUAAAACCUUCUCCAAAUUGUUUCAUCCU
RNA 2: GGGAAUGGAUCCACAUCUACGAAUUCUUAAGGAUGAAACAAUUUGGAGAAGUCGAGAUCGGAAGAGCACACGU
B19: target 2 MT 5'PFS ACC 3'PFS AAC (mixed)
RNA 1: CACCCGUGCAAAAUUGCAGGGGUCUAAAACCUUCUCCAAAUUGUUUCAUCCU
RNA 2: GGGAAUGGAUCCACAUCUACGAAUUCACCAGGAUGAAACAAUUUGGAGAAGAACAGAUCGGAAGAGCACACGU
B20: target 2 MT 5'PFS CAC 3'PFS CGC (mixed)
RNA 1: CACCCGUGCAAAAUUGCAGGGGUCUAAAACCUUCUCCAAAUUGUUUCAUCCU
RNA 2: GGGAAUGGAUCCACAUCUACGAAUUCCACAGGAUGAAACAAUUUGGAGAAGCGCAGAUCGGAAGAGCACACGU
B21: target 2 MT 5'PFS UCG 3'PFS AUC (mixed)
RNA 1: CACCCGUGCAAAAUUGCAGGGGUCUAAAACCUUCUCCAAAUUGUUUCAUCCU
RNA 2: GGGAAUGGAUCCACAUCUACGAAUUCUCGAGGAUGAAACAAUUUGGAGAAGAUCAGAUCGGAAGAGCACACGU
B22: target 2 MT 5'PFS UUA 3'PFS UCU (mixed)
RNA 1: CACCCGUGCAAAAUUGCAGGGGUCUAAAACCUUCUCCAAAUUGUUUCAUCCU
RNA 2: GGGAAUGGAUCCACAUCUACGAAUUCUUAAGGAUGAAACAAUUUGGAGAAGUCUAGAUCGGAAGAGCACACGU
B23: target 2 MT 5'PFS GCA 3'PFS UCC (mixed)
RNA 1: CACCCGUGCAAAAUUGCAGGGGUCUAAAACCUUCUCCAAAUUGUUUCAUCCU
RNA 2: GGGAAUGGAUCCACAUCUACGAAUUCGCAAGGAUGAAACAAUUUGGAGAAGUCCAGAUCGGAAGAGCACACGU
B24: target 2 MT 5'PFS GAU 3'PFS UGA (mixed)
RNA 1: CACCCGUGCAAAAUUGCAGGGGUCUAAAACCUUCUCCAAAUUGUUUCAUCCU
RNA 2: GGGAAUGGAUCCACAUCUACGAAUUCGAUAGGAUGAAACAAUUUGGAGAAGUGAAGAUCGGAAGAGCACACGU
B25: target 2 MT 5'PFS CAC 3'PFS CGA (mixed)
RNA 1: CACCCGUGCAAAAUUGCAGGGGUCUAAAACCUUCUCCAAAUUGUUUCAUCCU
RNA 2: GGGAAUGGAUCCACAUCUACGAAUUCCACAGGAUGAAACAAUUUGGAGAAGCGAAGAUCGGAAGAGCACACGU
B26: target 2 MT 5'PFS GGA 3'PFS AUU (mixed)
RNA 1: CACCCGUGCAAAAUUGCAGGGGUCUAAAACCUUCUCCAAAUUGUUUCAUCCU
RNA 2: GGGAAUGGAUCCACAUCUACGAAUUCGGAAGGAUGAAACAAUUUGGAGAAGAUUAGAUCGGAAGAGCACACGU
B27: target 2 MT 5'PFS CAC 3'PFS AGC (mixed)
RNA 1: CACCCGUGCAAAAUUGCAGGGGUCUAAAACCUUCUCCAAAUUGUUUCAUCCU
RNA 2: GGGAAUGGAUCCACAUCUACGAAUUCCACAGGAUGAAACAAUUUGGAGAAGAGCAGAUCGGAAGAGCACACGU

The target of this data set is T1, EsCas13d, nuclease-dead (Eubacterium siraeum, UniProt B0MS50, R295A;H300A;R849A;H854A).
T1 sequence: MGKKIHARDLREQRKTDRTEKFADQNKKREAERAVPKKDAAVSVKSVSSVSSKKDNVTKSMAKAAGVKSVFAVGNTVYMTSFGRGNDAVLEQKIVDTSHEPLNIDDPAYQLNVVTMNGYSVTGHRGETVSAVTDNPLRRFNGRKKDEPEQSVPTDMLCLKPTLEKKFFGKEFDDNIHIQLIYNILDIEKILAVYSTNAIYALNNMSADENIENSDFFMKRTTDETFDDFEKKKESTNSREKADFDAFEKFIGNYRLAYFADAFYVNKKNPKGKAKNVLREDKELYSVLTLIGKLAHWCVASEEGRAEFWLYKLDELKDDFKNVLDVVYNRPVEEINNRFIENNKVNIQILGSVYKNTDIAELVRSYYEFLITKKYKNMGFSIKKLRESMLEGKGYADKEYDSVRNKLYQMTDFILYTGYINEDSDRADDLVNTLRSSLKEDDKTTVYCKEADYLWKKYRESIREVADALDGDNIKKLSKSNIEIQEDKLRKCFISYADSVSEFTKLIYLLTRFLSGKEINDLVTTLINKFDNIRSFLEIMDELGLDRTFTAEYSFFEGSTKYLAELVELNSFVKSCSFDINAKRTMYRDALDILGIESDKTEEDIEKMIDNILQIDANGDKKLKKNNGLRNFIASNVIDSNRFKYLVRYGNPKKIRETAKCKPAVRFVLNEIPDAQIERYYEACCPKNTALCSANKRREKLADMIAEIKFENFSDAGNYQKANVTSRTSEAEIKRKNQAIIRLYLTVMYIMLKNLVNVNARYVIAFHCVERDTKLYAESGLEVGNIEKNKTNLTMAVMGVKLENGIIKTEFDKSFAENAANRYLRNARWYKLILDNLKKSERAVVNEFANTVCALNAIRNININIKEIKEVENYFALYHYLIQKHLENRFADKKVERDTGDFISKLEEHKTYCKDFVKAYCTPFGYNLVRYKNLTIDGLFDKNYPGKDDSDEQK
Nature of the data set: crRNA (strand 1, pre-loaded); Mg2+; 40 mM Tris-HCl pH 7.5, 150 mM NaCl, 6 mM MgCl2, 1 mM DTT, 0.1% Tween-20, 0.2 mg/ml BSA; 25 C; 10 min per concentration, then washed. As to conditions: tags: His6-TwinStrep-SUMO cleaved; N-terminal SNAP kept (SNAP-Surface 488); label: 3' end held by stalled T7 RNA polymerase.
Consider B1, for which the Kd stood at 50 ± 8 nM.
Take B2: binding was put at a Kd of 7.7 ± 0.5 nM.
Next, B3: 30.3 ± 2.6 nM; B4: 19 ± 4 nM.
B5 gave a Kd of 8 ± 1.2 nM. This Kd is about 2.4-fold lower than that of the molecule before.
The molecule B6 gave a Kd of 10.2 ± 1.5 nM.
B7 gave a dissociation constant Kd of 12.4 ± 1.9 nM.
B8 registered a Kd of 20 ± 4 nM.
With B9, binding was put at a Kd of 14.9 ± 1.9 nM.
Next, B10: 53 ± 9 nM; B11: 29 ± 9 nM.
For B12, binding was characterised by a dissociation constant (Kd) of 9.8 ± 0.9 nM. Against the preceding molecule, the Kd is about 3-fold lower.
B13: binding was characterised by a dissociation constant (Kd) of 27 ± 6 nM. Against the preceding molecule, the Kd is about 2.8-fold higher.
Molecule B14 yielded a Kd of 23 ± 5 nM.
The molecule B15 gave a Kd of 21.2 ± 2.2 nM.
The molecule B16 returned a dissociation constant Kd of 21.3 ± 2.8 nM.
Next, B17: 9.3 ± 2.7 nM.
B18: the Kd is 25 ± 4 nM. Against the preceding molecule, the Kd is about 2.7-fold higher.
For the molecule B19, the affinity, expressed as Kd, was 10.5 ± 3.1 nM.
B20 showed a dissociation constant (Kd) of 1.69 ± 0.2 nM.
On to B21, for which the Kd is around 70 nM.
Then B22, with 28 ± 4 nM.
The molecule B23 displayed a dissociation constant (Kd) of 32 ± 4 nM.
Molecule B24 registered a Kd of 19 ± 5 nM.
Then B25, with 3.01 ± 0.34 nM; and B26, with 9 ± 1 nM.
As for B27, the Kd came to 1.87 ± 0.32 nM. Against the preceding molecule, the Kd is about 4.8-fold lower.
